In the data set the target is Glypican-3 (GPC3) (UniProt P51654 25-554). In words: electrochemical sandwich aptasensor (DPV silver stripping; EIS); GPC3 captured by GPC3 antibody on Au NPs@rGO/SPE; aptamer on H-rGO-Pd NPs; response 0.01-100 ug/mL, LOD 3.30 ng/mL (not a Kd); PBS 0.1 mol/L as electrolyte; probe in Tris-EDTA buffer; 5.0 umol/L GPC3Apt; response time 30 min; incubation temperature tested 4-37 C; pH not given in material. The note with it: protein: commercial; label: adsorbed on H-rGO-Pd NPs nanozyme (signal probe).
Chain of Glypican-3 (GPC3) (P51654 25-554): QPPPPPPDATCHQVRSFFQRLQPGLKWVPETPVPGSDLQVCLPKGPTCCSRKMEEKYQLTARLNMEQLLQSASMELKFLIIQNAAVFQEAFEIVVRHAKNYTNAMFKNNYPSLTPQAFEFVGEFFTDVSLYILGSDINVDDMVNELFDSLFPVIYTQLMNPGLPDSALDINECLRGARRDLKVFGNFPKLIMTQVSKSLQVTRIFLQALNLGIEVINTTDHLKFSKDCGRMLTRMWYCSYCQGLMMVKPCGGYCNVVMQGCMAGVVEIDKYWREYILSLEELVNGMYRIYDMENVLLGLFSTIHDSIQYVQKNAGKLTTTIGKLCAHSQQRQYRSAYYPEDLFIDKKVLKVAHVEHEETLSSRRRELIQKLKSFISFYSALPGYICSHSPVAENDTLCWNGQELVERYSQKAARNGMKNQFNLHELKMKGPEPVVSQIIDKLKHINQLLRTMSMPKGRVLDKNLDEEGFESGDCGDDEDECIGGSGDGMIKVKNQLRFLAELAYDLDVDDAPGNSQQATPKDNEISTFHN

Take TAACGCTGACCTTAGCTGGATTTTACATGTTCCA (ssDNA, 5'-NH2) [GPC3Apt]: the binding result is listed as “binds”.
